From PMC9352680, “A comprehensive thermodynamic model for RNA binding by the Saccharomyces cerevisiae Pumilio protein PUF4”
Changes are numbered by the printed parent chain. In names and notes the source's numbering stands.

T1: PUF4 RNA-binding domain (Saccharomyces cerevisiae, UniProt P25339 537-888)
T1 sequence: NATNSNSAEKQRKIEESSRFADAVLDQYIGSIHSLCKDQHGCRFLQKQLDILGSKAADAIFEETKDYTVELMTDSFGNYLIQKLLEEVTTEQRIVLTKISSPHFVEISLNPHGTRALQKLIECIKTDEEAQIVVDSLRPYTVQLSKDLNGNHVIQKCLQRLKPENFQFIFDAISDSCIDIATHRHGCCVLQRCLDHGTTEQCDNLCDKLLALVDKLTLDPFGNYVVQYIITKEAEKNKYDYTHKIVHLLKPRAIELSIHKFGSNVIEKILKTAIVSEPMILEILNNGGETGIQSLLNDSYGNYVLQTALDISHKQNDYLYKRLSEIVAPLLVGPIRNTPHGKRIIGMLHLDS

B1: Id_ii_S4_P4E.4_K4.3_C4.2_[T-1C]_H4.3_A4.1_F4.1_T4.2_[G10C]_[T11C] (ssRNA)
RNA: UUUGACAACUGAUCGUUCUUUCUCCACACUAUUACCUUCUUUCUCGAUCAGUUGUCUUU
B2: Id_ii_S4_P4E.4_K4.3_C4.2_[T-1C]_H4.3_A4.1_F4.1_T4.2_[G10C] (ssRNA)
RNA: B1 RNA with C36U
B3: Id_ii_S4_P4E.4_K4.3_C4.2_[T-1C]_H4.3_A4.1_F4.1_T4.2_[G10T]_[T11A] (ssRNA)
RNA: B1 RNA with C35U, C36A
B4: Id_ii_S4_P4E.4_K4.3_C4.2_[T-1C]_H4.3_A4.1_F4.1_T4.2_[G10A] (ssRNA)
RNA: B1 RNA with C35A, C36U
B5: Id_ii_S4_P4E.4_K4.3_C4.2_[T-1A]_H4.3_A4.1_F4.1_T4.2_[G10C] (ssRNA)
RNA: B1 RNA with C25A, C36U
B6: Id_ii_S4_P4E.4_K4.3_C4.2_[T-1A]_H4.3_A4.1_F4.1_T4.2_[T11C] (ssRNA)
RNA: B1 RNA with C25A, C35G
B7: Id_ii_S4_P4E.4_K4.3_C4.2_[T-1A]_H4.3_A4.1_F4.1_T4.2 (ssRNA)
RNA: B1 RNA with C25A, C35G, C36U
B8: Id_ii_S4_P4E.4_K4.3_C4.2_H4.3_A4.1_F4.1_T4.2_[G10C]_[T11A] (ssRNA)
RNA: B1 RNA with C25U, C36A
B9: Id_ii_S4_P4E.4_K4.3_C4.2_H4.3_A4.1_F4.1_T4.2_[G10A]_[T11C] (ssRNA)
RNA: B1 RNA with C25U, C35A
B10: Id_ii_S4_P5E.2_K5.1_C5.2_[C-2G]_[T-1C]_H5.1_A5.1_F5.1_T5.2_[T11A]_[A12T] (ssRNA)
RNA: UUUGACAACUGAUCGUUCUUUCUGCUGUAUUAUUAAUUUCUUUCUCGAUCAGUUGUCUUU
B11: Id_ii_S4_P5E.2_K5.1_C5.2_[C-2G]_[T-1C]_H5.1_A5.1_F5.1_T5.2_[A12C] (ssRNA)
RNA: B10 RNA with A36U, U37C
B12: Id_ii_S4_P5E.2_K5.1_C5.2_[C-2G]_H5.1_A5.1_F5.1_T5.2_[T11A] (ssRNA)
RNA: B10 RNA with C25U, U37A
B13: Id_ii_S4_P5E.2_K5.1_C5.2_[C-2G]_H5.1_A5.1_F5.1_T5.2_[A12T] (ssRNA)
RNA: B10 RNA with C25U, A36U
B14: Id_ii_S4_P5E.2_K5.1_C5.2_[C-2T]_[T-1G]_H5.1_A5.1_F5.1_T5.2_[T11G]_[A12C] (ssRNA)
RNA: B10 RNA with G24U, C25G, A36G, U37C
B15: Id_ii_S4_P5E.2_K5.1_C5.2_[C-2T]_[T-1G]_H5.1_A5.1_F5.1_T5.2_[T11G]_[A12T] (ssRNA)
RNA: B10 RNA with G24U, C25G, A36G
B16: Id_ii_S4_P5E.2_K5.1_C5.2_[C-2T]_[T-1G]_H5.1_A5.1_F5.1_T5.2_[T11A]_[A12C] (ssRNA)
RNA: B10 RNA with G24U, C25G, U37C
B17: Id_ii_S4_P5E.2_K5.1_C5.2_[C-2T]_[T-1G]_H5.1_A5.1_F5.1_T5.2_[T11A]_[A12T] (ssRNA)
RNA: B10 RNA with G24U, C25G
B18: Id_ii_S4_P5E.2_K5.1_C5.2_[C-2T]_[T-1G]_H5.1_A5.1_F5.1_T5.2_[A12C] (ssRNA)
RNA: B10 RNA with G24U, C25G, A36U, U37C
B19: Id_ii_S4_P5E.2_K5.1_C5.2_[C-2T]_[T-1C]_H5.1_A5.1_F5.1_T5.2_[T11A]_[A12G] (ssRNA)
RNA: B10 RNA with G24U, U37G
B20: Id_ii_S4_P5E.2_K5.1_C5.2_[C-2T]_[T-1C]_H5.1_A5.1_F5.1_T5.2_[T11A]_[A12C] (ssRNA)
RNA: B10 RNA with G24U, U37C
B21: Id_ii_S4_P5E.2_K5.1_C5.2_[C-2T]_[T-1A]_H5.1_A5.1_F5.1_T5.2_[T11G]_[A12T] (ssRNA)
RNA: B10 RNA with G24U, C25A, A36G
B22: Id_ii_S4_P5E.2_K5.1_C5.2_[C-2T]_[T-1A]_H5.1_A5.1_F5.1_T5.2_[T11A]_[A12C] (ssRNA)
RNA: B10 RNA with G24U, C25A, U37C
B23: Id_ii_S4_P5E.2_K5.1_C5.2_[C-2T]_[T-1A]_H5.1_A5.1_F5.1_T5.2_[T11A] (ssRNA)
RNA: B10 RNA with G24U, C25A, U37A
B24: Id_ii_S4_P5E.2_K5.1_C5.2_[C-2T]_H5.1_A5.1_F5.1_T5.2_[T11A]_[A12T] (ssRNA)
RNA: B10 RNA with G24U, C25U
B25: Id_ii_S4_P5E.2_K5.1_C5.2_[C-2T]_H5.1_A5.1_F5.1_T5.2_[A12C] (ssRNA)
RNA: B10 RNA with G24U, C25U, A36U, U37C
B26: Id_ii_S4_P5E.2_K5.1_C5.2_[C-2A]_[T-1C]_H5.1_A5.1_F5.1_T5.2_[T11A]_[A12T] (ssRNA)
RNA: B10 RNA with G24A

Target: T1, PUF4 RNA-binding domain
Test: Mg; RNA-MaP; 20 mM Na-HEPES pH 7.4, 30 mM KOAc, 0.75 mM MgCl2, 0.1% Tween-20, 5% glycerol, 0.1 mg/mL BSA, 2 mM DTT; 25 C; 0.0125-409.6 nM protein
Settings: tags: N-His6-TEV cleaved; C-SNAP kept, Cy3B-labelled; label: tethered on chip by stalled RNA polymerase

Binder	Kd [nM]
B1	1360
B2	> 2300
B3	728
UCUCUUUAUAUUUUUAUCUCUU (ssRNA) [Ib_S1_P5E.1_K5.1_C5.1_H5.1_[G2A]_A5.1_[A7T]_F5.1_T5.1]	742
B4	> 2300
B5	> 2300
B6	> 2300
B7	> 2300
B8	944
B9	1210
B10	3.13
B11	5.29
B12	6.57
B13	1.91
UCUCUUUGCAAUAUUAUCUCUU (ssRNA) [Ib_S1_P5E.1_K5.1_C5.1_H5.1_[T3C]_A5.1_[T5A]_F5.1_T5.1]	1370
B14	2.47
B15	1.51
B16	3.09
B17	1.56
B18	1.56
B19	34.5
B20	2.92
B21	4.76
B22	9.12
B23	10.7
UCUCUUUGCAUCAUUAUCUCUU (ssRNA) [Ib_S1_P5E.1_K5.1_C5.1_H5.1_[T3C]_A5.1_[T6C]_F5.1_T5.1]	1980
B24	2.21
B25	2.29
B26	2.62
